± gives the uncertainty stated by the source.
B1: V(D)J recombination-activating protein 2, residues 415 to 491; numbered along this chain, P55895 (parent)
chain: YWITCCPTCDVDINTWVPFYSTELNKPAMIYCSHGDGHWVHAQCMDLAERTLIHLSAGSNKYYCNEHVEIARALHTP

Variants of: B1
Experiment: abundance fitness (aPCA) (normalised: wild type 0, dead -1); higher = more abundant; growth selection in yeast, the domain comes from the species named
Conditions: Homo sapiens
W39N gave an abundance fitness of -0.274 ± 0.1. W39D gave an abundance fitness of -0.536 ± 0.093. W39Q showed an abundance fitness of -0.176 ± 0.053. In the case of W39H, the abundance fitness is reported as -0.144 ± 0.11. In the case of W39K, the abundance fitness is reported as -0.23 ± 0.07. Work on W39L yielded an abundance fitness of -0.097 ± 0.033. W39S gave an abundance fitness of -0.209 ± 0.039. For W39R, the abundance fitness was -0.185 ± 0.029. W39G gave an abundance fitness of -0.54 ± 0.034. Work on W39V yielded an abundance fitness of -0.193 ± 0.034. W39P showed an abundance fitness of -0.294 ± 0.064. W39E showed an abundance fitness of -0.148 ± 0.049. In the case of W39T, the abundance fitness is reported as -0.197 ± 0.049. For W39I, the abundance fitness was -0.278 ± 0.078. W39Y showed an abundance fitness of 0.014 ± 0.079. Variant W39M has an abundance fitness of -0.072 ± 0.036. W39F gave an abundance fitness of -0.105 ± 0.074. With G37P the abundance fitness was 0.076 ± 0.23. For G37K, the abundance fitness was -0.785 ± 0.37. In the case of G37S, the abundance fitness is reported as -0.839 ± 0.21. Variant G37E has an abundance fitness of -0.778 ± 0.26. In the case of H38A, the abundance fitness is reported as -0.986 ± 0.48. Work on H38N yielded an abundance fitness of -0.689 ± 0.42. With H38V the abundance fitness was -0.776 ± 0.31. H38Y showed an abundance fitness of -0.543 ± 0.46. D46F showed an abundance fitness of -0.221 ± 0.11. In the case of D46R, the abundance fitness is reported as 0.041 ± 0.031. In the case of D46Y, the abundance fitness is reported as -0.113 ± 0.12. Work on D46Q yielded an abundance fitness of 0.085 ± 0.045. With D46S the abundance fitness was 0.102 ± 0.055. For D46C, the abundance fitness was 0.036 ± 0.083. Work on D46M yielded an abundance fitness of 0.071 ± 0.07. With D46L the abundance fitness was 0.031 ± 0.045. D46E showed an abundance fitness of -0.05 ± 0.075. With D46G the abundance fitness was -0.03 ± 0.055. In the case of D46W, the abundance fitness is reported as -0.193 ± 0.07. For D46P, the abundance fitness was -0.268 ± 0.087. Variant D46H has an abundance fitness of -0.071 ± 0.11. D46T showed an abundance fitness of 0.088 ± 0.061. In the case of D46V, the abundance fitness is reported as 0.046 ± 0.056. In the case of D46K, the abundance fitness is reported as 0.122 ± 0.074. D46N showed an abundance fitness of 0.029 ± 0.11. Work on H41R yielded an abundance fitness of -0.755 ± 0.25. Variant H41D has an abundance fitness of -0.785 ± 0.48. For H41Y, the abundance fitness was -0.771 ± 0.34. C44N showed an abundance fitness of -0.732 ± 0.32. With C44S the abundance fitness was -0.998 ± 0.12. For C44L, the abundance fitness was -0.806 ± 0.064. In the case of C44R, the abundance fitness is reported as -1.02 ± 0.1. For C44P, the abundance fitness was -0.943 ± 0.12. Variant C44Y has an abundance fitness of -0.961 ± 0.22. Variant C44Q has an abundance fitness of -0.969 ± 0.12. Variant C44A has an abundance fitness of -1.02 ± 0.13. With C44I the abundance fitness was -0.972 ± 0.18. C44H gave an abundance fitness of -1.09 ± 0.3. Variant C44D has an abundance fitness of -0.765 ± 0.17. C44W showed an abundance fitness of -0.98 ± 0.14. With C44T the abundance fitness was -0.556 ± 0.091. In the case of C44G, the abundance fitness is reported as -1.01 ± 0.11. Work on C44V yielded an abundance fitness of -1.11 ± 0.14. Work on C44K yielded an abundance fitness of -1.23 ± 0.38. C44E gave an abundance fitness of -1.08 ± 0.23. C44M showed an abundance fitness of -1.15 ± 0.45. For C44F, the abundance fitness was -0.952 ± 0.31. In the case of G35A, the abundance fitness is reported as -0.164 ± 0.22. With G35L the abundance fitness was -0.042 ± 0.15. G35V showed an abundance fitness of -0.175 ± 0.36. For G35K, the abundance fitness was 0.042 ± 0.28. G35I showed an abundance fitness of -0.07 ± 0.3. G35S showed an abundance fitness of -0.136 ± 0.11. G35N gave an abundance fitness of 0.137 ± 0.36. G35E showed an abundance fitness of 0.068 ± 0.19. G35R gave an abundance fitness of -0.374 ± 0.25. For G35W, the abundance fitness was -0.291 ± 0.14. With G35Q the abundance fitness was -0.17 ± 0.12. For Q43A, the abundance fitness was -0.397 ± 0.5. Variant Q43E has an abundance fitness of -0.344 ± 0.25. For Q43R, the abundance fitness was 0.129 ± 0.17. Variant Q43G has an abundance fitness of -0.203 ± 0.14. In the case of Q43L, the abundance fitness is reported as -0.196 ± 0.12. Q43P showed an abundance fitness of -0.771 ± 0.48. Work on Q43V yielded an abundance fitness of -0.116 ± 0.12. Q43T showed an abundance fitness of 0.107 ± 0.36. For Q43M, the abundance fitness was -0.048 ± 0.19. Variant Q43S has an abundance fitness of -0.174 ± 0.21. With P27R the abundance fitness was -0.973 ± 0.2. In the case of P27V, the abundance fitness is reported as -0.668 ± 0.21. With P27Q the abundance fitness was -0.79 ± 0.33. Work on P27G yielded an abundance fitness of -1.09 ± 0.27. Work on P27F yielded an abundance fitness of -0.515 ± 0.46. P27L gave an abundance fitness of -0.861 ± 0.21. P27H gave an abundance fitness of -0.741 ± 0.5. Variant P27S has an abundance fitness of -0.958 ± 0.34. For R50I, the abundance fitness was 0.067 ± 0.11. For R50E, the abundance fitness was 0.039 ± 0.076. With R50Q the abundance fitness was -0.032 ± 0.1. R50M showed an abundance fitness of 0.015 ± 0.089. R50A showed an abundance fitness of 0.094 ± 0.066. R50G gave an abundance fitness of 0.036 ± 0.051. R50D showed an abundance fitness of -0.027 ± 0.096. Work on R50Y yielded an abundance fitness of -0.122 ± 0.099. With R50S the abundance fitness was 0.092 ± 0.06. For R50F, the abundance fitness was -0.04 ± 0.081. R50P showed an abundance fitness of 0.1 ± 0.068. Variant R50V has an abundance fitness of 0.069 ± 0.051. R50C showed an abundance fitness of 0.106 ± 0.11. Work on R50K yielded an abundance fitness of 0.015 ± 0.093. R50N gave an abundance fitness of -0.215 ± 0.14. With R50L the abundance fitness was 0.013 ± 0.051. In the case of R50T, the abundance fitness is reported as 0.049 ± 0.06. Variant R50H has an abundance fitness of 0.037 ± 0.14. With R50W the abundance fitness was -0.195 ± 0.066. With L47D the abundance fitness was -0.571 ± 0.13. Variant L47Y has an abundance fitness of -0.508 ± 0.15. Work on L47F yielded an abundance fitness of -0.133 ± 0.1. For L47C, the abundance fitness was -0.081 ± 0.08. Work on L47M yielded an abundance fitness of 0.05 ± 0.057. Variant L47H has an abundance fitness of -0.243 ± 0.094. L47V showed an abundance fitness of 0.034 ± 0.039. Variant L47W has an abundance fitness of -0.611 ± 0.067. Variant L47K has an abundance fitness of -0.515 ± 0.086. With L47R the abundance fitness was -0.419 ± 0.042. For L47P, the abundance fitness was -0.684 ± 0.09. L47E gave an abundance fitness of -0.307 ± 0.081. L47N showed an abundance fitness of -0.364 ± 0.11. For L47T, the abundance fitness was -0.101 ± 0.056. Work on L47G yielded an abundance fitness of -0.458 ± 0.04. In the case of L47S, the abundance fitness is reported as -0.277 ± 0.047. H34Q showed an abundance fitness of 0.051 ± 0.085. For H34E, the abundance fitness was -0.085 ± 0.082. Work on H34P yielded an abundance fitness of -0.808 ± 0.15. Variant H34F has an abundance fitness of -0.301 ± 0.18. With H34A the abundance fitness was -0.035 ± 0.069. Work on H34D yielded an abundance fitness of -0.095 ± 0.13. H34N gave an abundance fitness of -0.089 ± 0.11. With H34Y the abundance fitness was -0.101 ± 0.12. In the case of H34R, the abundance fitness is reported as -0.119 ± 0.074. In the case of H34L, the abundance fitness is reported as -0.073 ± 0.059. Variant H34V has an abundance fitness of -0.132 ± 0.05. Variant H34M has an abundance fitness of -0.046 ± 0.13. Work on H34T yielded an abundance fitness of -0.234 ± 0.11. Variant H34C has an abundance fitness of -0.309 ± 0.19. With H34S the abundance fitness was -0.032 ± 0.07. H34G gave an abundance fitness of -0.007 ± 0.056. In the case of H34K, the abundance fitness is reported as -0.211 ± 0.14. For A28T, the abundance fitness was -0.218 ± 0.28. Variant A28N has an abundance fitness of 0.078 ± 0.33. In the case of A28D, the abundance fitness is reported as -0.318 ± 0.13. A28P showed an abundance fitness of -0.334 ± 0.21. For A28G, the abundance fitness was -0.775 ± 0.27. Variant A28Y has an abundance fitness of 0.009 ± 0.32. Variant A28F has an abundance fitness of -0.183 ± 0.2. Variant A28C has an abundance fitness of -0.117 ± 0.2. For A28M, the abundance fitness was -0.213 ± 0.28. A28Q gave an abundance fitness of -0.104 ± 0.15. A28E showed an abundance fitness of -0.172 ± 0.29. A28H showed an abundance fitness of -0.23 ± 0.34. A28R gave an abundance fitness of -0.214 ± 0.16. In the case of A28K, the abundance fitness is reported as -0.112 ± 0.3. For A28L, the abundance fitness was -0.094 ± 0.095. A28S gave an abundance fitness of -0.035 ± 0.15. Variant A28W has an abundance fitness of -0.116 ± 0.19. In the case of A28V, the abundance fitness is reported as -0.155 ± 0.14. C32W showed an abundance fitness of -0.861 ± 0.15. With C32K the abundance fitness was -1.09 ± 0.46. In the case of C32V, the abundance fitness is reported as -0.746 ± 0.088. C32R gave an abundance fitness of -0.967 ± 0.14.
